Assay results reported in patent US20210087291A1 (Hoffmann-La Roche, published 2021).
Changes are numbered by the printed parent chain.

B1: Tim3_0038 (antibody, V domains shown)
VH: EVQLQQSGAEPLKPGASVKLTCTTSGFNIKDYYIHWVKQRSDQGLEWIGRIDPEDGELIYAPKFQDKATITVDTSSNIAYLQLNSLTSEDTAVYYCSRDHGYVGWFAYWGQGTLVTVSA
VL: NVVMTQSPKSMIMSVGQRVTLNCKASENVDTYVSWYQQKPEQSPKLLIYGASNRYTGVPDRFTGSRSATDFTLTISSVQAEDLAVYYCGQSYSYPWTFGGGTKLEFR
B2: Tim3_0028 (antibody, V domains shown)
VH: EVQLQQSVAELVRPGASVKLSCTASGFNIKTTYMHWVKQRPEQGLEWIGRIDPADDNTKYAPKFQGKATITADTSSNTAYLQLSSLTSEDAAIYYCVRDFGYVAWFAYWGQGTLVTFSA
VL: NIVMTPTPKFLPVSSGDRVTMTCRASQSVDNYVAWYQQKPGQSPKLLIYYASNRYIGVPDRFTGSGSGTDFTFTISSVQVEDLAVYFCQQHYSSPYTFGSGTKLEIK
B3: 15A1 Fab (Fab, V domains shown)
VH: QVQLVQSGAEVKKPGASVKVSCKASGYTFTSYYMHWVRQAPGQGLEWMGIINPSGGSTSYAQKFQGRVTMTRDTSTSTVYMELSSLRSEDTAVYYCARNYYIGVVTFDYWGQGTLVTVSS
VL: QAVVTQEPSLTVSPGGTVTLTCGSSTGAVTTSNYANWVQEKPGQAFRGLIGGTNKRAPGTPARFSGSLLGGKAALTLSGAQPEDEAEYYCALWYSNLWVFGGGTKLTVL
B4: 15H7 Fab (Fab, V domains shown)
VH: B3 VH with I102L, G103F, V104S, V105T, T106S
VL: B3 VL
B5: 15H7 IgG (antibody, V domains shown)
VH: B3 VH with I102L, G103F, V104S, V105T, T106S
VL: B3 VL
notes: human IgG1
B6: 16A3 IgG (antibody, V domains shown)
VH: B3 VH with I102A, V105T, T106P
VL: B3 VL
notes: human IgG1
B7: 16F12 IgG (antibody, V domains shown)
VH: B3 VH with Y100F, Y101T, I102V, G103L, V104R, T106P
VL: B3 VL
notes: human IgG1
B8: 21D1 Fab (Fab, V domains shown)
VH: B3 VH with I102V, V105S, T106P
VL: B3 VL
B9: 21D1 IgG (antibody, V domains shown)
VH: B3 VH with I102V, V105S, T106P
VL: B3 VL
notes: human IgG1
B10: 6B6 IgG (antibody, V domains shown)
VH: QVQLVQSGAEVKKPGASVKVSCKASGYTFTSYYMHWVRQAPGQGLEWMGIINPSGGSTSYAQKFQGRVTMTRDTSTSTVYMELSSLRSEDTAVYYCARSYVDMDYWGQGTLVTVSS
VL: EIVLTQSPGTLSLSPGERATLSCRASQSVSSSYLAWYQQKPGQAPRLLIYGASSRATGIPDRFSGSGSGTDFTLTISRLEPEDFAVYYCQQDIWSPTFGQGTKVEIK
notes: human IgG1
B11: 16A3 Fab (Fab, V domains shown)
VH: B3 VH with I102A, V105T, T106P
VL: B3 VL
B12: 15B6 IgG (antibody, V domains shown)
VH: B3 VH with V104I, T106P
VL: B3 VL
notes: human IgG1
B13: 19A4 Fab (Fab, V domains shown)
VH: B3 VH with N99G, Y100G, Y101W, G103R, V104W, V105E, T106H
VL: B3 VL
B14: 19E5 Fab (Fab, V domains shown)
VH: B3 VH with N99G, Y100E, Y101W, I102R, G103R, V104Y, V105T, T106S
VL: B3 VL
B15: 19H3 Fab (Fab, V domains shown)
VH: B3 VH with N99T, Y100G, Y101W, I102S, G103R, V104W, V105G, T106Y, F107M
VL: B3 VL
B16: 20G6 Fab (Fab, V domains shown)
VH: B3 VH with N99G, Y100E, Y101W, G103R, V104Y, V105Y, T106H
VL: B3 VL
B17: 18D3 Fab (Fab, V domains shown)
VH: QVQLVQSGAEVKKPGASVKVSCKASGYTFTSYYMHWVRQAPGQGLEWMGIINPSGGSTSYAQKFQGRVTMTRDTSTSTVYMELSSLRSEDTAVYYCARNYYTGGSSAFDYWGQGTLVTVS
VL: B3 VL
B18: 18D3 IgG (antibody, V domains shown)
VH: B17 VH
VL: B3 VL
notes: human IgG1

Legend:
[1] = target: T1, cynomolgus TIM-3 on isolated cyno CD14+ monocytes (cynomolgus); experiment: flow cytometry, cyno CD14+ monocytes cyno3
T1 construct: whole, on cells
Source text: (§1) CD14+ Monocytes were isolated from cynomolgus monkey anticoagulated peripheral blood (Covance) by density gradient centrifugation using Ficoll-Paque (GE Healthcare) (see General Protocols in the User Manuals or visit www.miltenyibiotec.com/protocols) and subsequent positive selection via NHP CD14 MicroBeads. First the CD14+ cells are magnetically labeled with CD14 MicroBeads. Then the cell suspension is loaded onto a MACS® Column which is placed in the magnetic field of a MACS Separator. The magnetically labeled CD14+ cells are retained in the column. The unlabeled cells run through, this cell fraction is depleted of CD14+ cells. After removal of the column from the magnetic field, the magnetically retained CD14+ cells can be eluted as the positively selected cell fraction. After centrifugation at 200×g for 10 min at room temperature the monocytes were harvested and used directly in binding assay or resuspended in freezing medium (10% DMSO, 90% FCS) at 1.0E+07 cells/ml and stored in liquid nitrogen.
(§2) 1×10⁵ CD14+ isolated cyno monocytes (50 μl/well) were put into 98 well-v bottom MTP in fresh culture medium and incubated with Redimune® NF Liquid for 15 min at RT to block unspecific binding. Than 50 μl/well of Alexa488 labeled anti-TIM3 (10 μg/ml in cell culture medium) were added and incubated for 1 h at 4° C. After washing and centrifugation MFI signals of stained cells were analyzed by BD Biosciences FACSCanto flow cytometer.

[2] = target: T2, human TIM-3 on cells (human, UniProt Q8TDQ0 22-301); experiment: flow cytometry, human CD14+ monocytes donor3
T2 construct: also called CHO-Tim3; rec CHOK1 cells expressing huTIM-3

[3] = target: T2, human TIM-3 on cells; experiment: cell-based or functional assay
[4] = target: T2, human TIM-3 on cells; experiment: flow cytometry, human CD14+ monocytes donor2
[5] = target: T1, cynomolgus TIM-3 on isolated cyno CD14+ …; experiment: flow cytometry, cyno CD14+ monocytes cyno2
Source text: as §1, §2

[6] = target: T2, human TIM-3 on cells; experiment: flow cytometry, human CD14+ monocytes donor1
Source text: CD14+ Monocytes were isolated from anticoagulated peripheral blood of healthy donors by density gradient centrifugation using Ficoll-Paque (GE Healthcare) (see General Protocols in the User Manuals or visit www.miltenyibiotec.com/protocols) and subsequent positive selection via CD14 MicroBeads. First the CD14+ cells are magnetically labeled with CD14 MicroBeads. Then the cell suspension is loaded onto a MACS® Column which is placed in the magnetic field of a MACS Separator. The magnetically labeled CD14+ cells are retained in the column. The unlabeled cells run through, this cell fraction is depleted of CD14+ cells. After removal of the column from the magnetic field, the magnetically retained CD14+ cells can be eluted as the positively selected cell fraction. After centrifugation at 200×g for 10 min at room temperature the monocytes were harvested and used directly in binding assay or resuspended in freezing medium (10% DMSO, 90% FCS) at 1.0E+07 cells/ml and stored in liquid nitrogen.
1×10⁵ CD14+ isolated human monocytes (50 μl/well) were put into 98 well-v bottom MTP in fresh culture medium and incubated with Redimune® NF Liquid for 15 min at RT to block unspecific binding. […] After washing and centrifugation MFI signals of stained cells were analyzed by BD Biosciences FACSCanto flow cytometer.

[7] = target: T1, cynomolgus TIM-3 on isolated cyno CD14+ …; experiment: flow cytometry, cyno CD14+ monocytes cyno1
Source text: as §1, §2

[8] = target: T2, human TIM-3 on cells; experiment: cell-based or functional assay; remark: listed apart in the source
[9] = target: T3, human FolR3 ECD-AcTev-Fcknob-Avi tag + Fc hole, biotinylated monomeric Fc fusion (human, UniProt P0DOX5 223-449 = IgG part); experiment: SPR ProteOn, Fab analyte;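 also: recombinant antigens immobilized, purified Fab two-fold dilutions injected in parallel channels, 200 s association and 600 s dissociation, buffer-only channel as in-line reference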
T3 construct: also called huFolR3; FolR3-Fc
Procedure: (§3) Immobilization of antigens (ligand): Recombinant antigens were diluted with PBST (10 mM phosphate, 150 mM sodium chloride pH 7.4, 0.005% Tween 20) to 10 μg/ml, then injected at 30 μl/minute in vertical orientation.
(§4) Injection of analytes: For ‘one-shot kinetics’ measurements, injection direction was changed to horizontal orientation, two-fold dilution series of purified Fab (varying concentration ranges) were injected simultaneously along separate channels 1-5, with association times of 200 s, and dissociation times of 600 s. Buffer (PBST) was injected along the sixth channel to provide an “in-line” blank for referencing. Association rate constants (kₒₙ) and dissociation rate constants (koff) were calculated using a simple one-to-one Langmuir binding model in ProteOn Manager v3.1 software by simultaneously fitting the association and dissociation sensorgrams. The equilibrium dissociation constant (KD) was calculated as the ratio koff/kₒₙ.

[10] = target: T4, cynomolgus FolR1 ECD-AcTev-Fcknob-Avi tag + Fc hole, biotinylated monomeric Fc fusion (cynomolgus, UniProt P0DOX5 223-449 = IgG part); experiment: SPR ProteOn, Fab analyte;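 also: recombinant antigens immobilized, purified Fab two-fold dilutions injected in parallel channels, 200 s association and 600 s dissociation, buffer-only channel as in-line reference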
T4 construct: also called cyFolR1; cyno FolR1-Fc
Procedure: as §3, §4

[11] = target: T5, human FolR2 ECD-AcTev-Fcknob-Avi tag + Fc hole, biotinylated monomeric Fc fusion (human, UniProt P0DOX5 223-449 = IgG part); experiment: SPR ProteOn, Fab analyte;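 also: recombinant antigens immobilized, purified Fab two-fold dilutions injected in parallel channels, 200 s association and 600 s dissociation, buffer-only channel as in-line reference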
T5 construct: also called huFolR2; FolR2-Fc
Procedure: as §3, §4

[12] = target: T6, human FolR1 ECD-AcTev-Fcknob-Avi tag + Fc hole, biotinylated monomeric Fc fusion (human, UniProt P0DOX5 223-449 = IgG part); experiment: SPR ProteOn, Fab analyte;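 also: recombinant antigens immobilized, purified Fab two-fold dilutions injected in parallel channels, 200 s association and 600 s dissociation, buffer-only channel as in-line reference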
T6 construct: also called huFolR1; huFolR1-Fc
Procedure: as §3, §4

[13] = target: T3, human FolR3 ECD-AcTev-Fcknob-Avi tag + …; experiment: SPR, IgG single injection
[14] = target: T5, human FolR2 ECD-AcTev-Fcknob-Avi tag + …; experiment: SPR, IgG single injection
[15] = target: T7, murine FolR1 ECD-AcTev-Fcknob-Avitag + Fc hole, biotinylated monomeric Fc fusion (murine, UniProt P0DOX5 223-449 = IgG part); experiment: SPR, IgG single injection
T7 construct: also called muFolR1; murine FolR1-Fc

| Binder | binding result [9] | Kd [10] [nM] | binding result [11] | binding result [13] | binding result [14] | further results |
| --- | --- | --- | --- | --- | --- | --- |
| B1 |  |  |  |  |  | MFI [1]: 120 MFI; specific binding MFI [2]: 1400 MFI; IFN-gamma release in MLR at 1 µg/ml, % of IL-2 control [3]: 1%; IFN-gamma release in MLR at 10 µg/ml, % of IL-2 control [3]: 38%; IFN-gamma release in MLR at 40 µg/ml, % of IL-2 control [3]: 51%; specific binding MFI [4]: 1370 MFI; MFI [5]: 107 MFI; specific binding MFI [6]: 1640 MFI; MFI [7]: 97 MFI |
| B2 |  |  |  |  |  | MFI [1]: 4090 MFI; specific binding MFI [2]: 1610 MFI; IFN-gamma release in MLR at 1 µg/ml, % of IL-2 control [3]: 12%; specific binding MFI [4]: 950 MFI; MFI [5]: 3000 MFI; specific binding MFI [6]: 1350 MFI; MFI [7]: 3940 MFI; internalization at 30 Min, RPMI-8226 [8]: 50%; internalization at 60 Min, RPMI-8226 [8]: 59%; internalization at 120 Min, RPMI-8226 [8]: 67%; internalization at 240 Min, RPMI-8226 [8]: 68%; internalization at 26 h, RPMI-8226 [8]: 83% |
| B3 | no binding | 17.3 | no binding |  |  | Kd [12]: 30.9 nM |
| B4 | no binding | 72.5 | no binding |  |  |  |
| B5 |  |  |  | no binding (tested: 500 nM) | no binding (tested: 500 nM) |  |
| B6 |  |  |  | no binding (tested: 500 nM) | no binding (tested: 500 nM) |  |
| B7 |  |  |  | no binding (tested: 500 nM) | no binding (tested: 500 nM) | binding result [15]: no binding (tested: 500 nM) |
| B8 | no binding | 32.1 | no binding |  |  | Kd [12]: 62.6 nM |
| B9 |  |  |  | no binding (tested: 500 nM) | no binding (tested: 500 nM) |  |
| B10 |  |  |  |  |  | binding result [15]: no binding (tested: 500 nM) |
| B11 | no binding | 18 | no binding |  |  | Kd [12]: 21.7 nM |
| B12 |  |  |  | no binding (tested: 500 nM) | no binding (tested: 500 nM) | binding result [15]: no binding (tested: 500 nM) |
| B13 |  | 4250 |  |  |  | Kd [12]: 2050 nM |
| B14 |  | 276 |  |  |  |  |
| B15 | no binding |  | no binding |  |  | binding result [10]: no binding; binding result [12]: no binding |
| B16 | no binding |  | no binding |  |  | binding result [10]: no binding; binding result [12]: no binding |
| B17 | no binding | 40.2 | no binding |  |  | Kd [12]: 93.6 nM |
| B18 |  |  |  | no binding (tested: 500 nM) | no binding (tested: 500 nM) |  |
